According to US8828401B2, “Cytotoxic peptides and antibody drug conjugates thereof” (Pfizer Inc., priority 2011, dated 2014):

B1: ch28-me0131 (conjugate)
VH: EVQLVESGGGLVQPGRSLTLSCVASGFTFRDYGMTWIRQAPGKGLTWVAYISSGSNYIYYAEAVKGRFTISRDNAKNTLYLQMTSLRSEDTALYFCTRRGPFVLDAWGQGASVTVSS
VL: DIQMTQSPSFLSASVGDRVTINCKASQSINRYLHWFQQKLGEAPKLLIYNANGLQTGIPSRFSGSGSGTDFTLTISSLQSEDVATYFCLQHNTWPDTFGAGTKLELK
B2: ch75-mc0131 (conjugate)
VH: QVKLLQSGAALVKPGASVKMSCKASGYAFTDYWVTWVKQSHGKSLEWIGEISPNSGGTNFNEKFKGKATLTVDKSTSTAYMELSRLTSEDSAIYYCTRGEIRYNWFAYWGQGTLVTVSS
VL: DIQMTQSPSSLSASVGDRVTITCKASQNVGNNIAWYQQKPGKAPKLLIYYASNRYTGVPSRFSGSGYGTDFTLTISSLQPEDFATYYCQRLYNSPFTFGGGTKVEIK

Tests used:
Assay in all cases: In vitro cytotoxicity assay with anti-Notch ADCs (MTS)
Type in all cases: cell-based
Settings in all cases: average of 2-4 repeats where ± S.E.M. is given
[1] = system: HCC2429 (lung cancer)
Method: (§1) The effects of anti-Notch ADCs were assessed on 1) cell lines endogenously expressing Notch protein: HCC2429 (lung cancer), OVCAR3 (ovarian cancer) and MDA-MB-468 (breast cancer), 2) cell lines engineered to over-express Notch protein: MDA-MB-468/hNotch and U2OS/hNotch, and 3) a negative control cell line (SW900) using an MTS cellular viability indicator (Promega, Madison, Wis.). These cell lines were cultured with increasing concentrations of anti-Notch ADCs comprising humanized anti-Notch antibodies, hu28 and hu75, and rat-human chimeric anti-Notch antibodies, ch28 and ch75, conjugated to various linker-payload combinations of the present invention. As a specificity control for the anti-Notch-ADCs, non-targeted control-ADCs (huNeg8.8-ADCs or ch2H6-ADCs) were also tested on the same cell lines. After four days, viability of each culture was assessed. IC50 values were calculated by logistic non-linear regression and presented as ng Ab/mL. The drug antibody ratio (DAR) is also provided.

[2] = system: MDA-MB-468 (breast cancer)
Method: as §1

[3] = system: OVCAR3 (ovarian cancer)
Method: as §1

[4] = system: U2OS/hNotch
Method: as §1

| Molecule | IC50 (ng Ab/mL) ± S.E.M. [1] [ng Ab/mL] | IC50 (ng Ab/mL) ± S.E.M. [2] [ng Ab/mL] | IC50 (ng Ab/mL) ± S.E.M. [3] [ng Ab/mL] | IC50 (ng Ab/mL) ± S.E.M. [4] [ng Ab/mL] |
| --- | --- | --- | --- | --- |
| B1 | 30 | 24 ± 14.0 | 8 ± 2.0 | 3 ± 1.15 |
| B2 | 671 ± 406.5 | 8202 ± 2773.0 | 289 | 19 |
